Experiments:
cyno FcRn/b2M [1] = target: T1, cyno FcRn/b2M (cyno, UniProt Q8SPV9 24-297; Q8SPW0 21-119, biotinylated); experiment: SPR off-rate; pH 7.4 vs pH 6.0;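 note: surface plasmon resonance with diluted periplasmic extracts flowed over ligand surfaces, 120 s association and 600–3600 s dissociation at 25 °C, running buffer containing 150 mM NaCl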
T1 construct: bought recombinant biotinylated protein (Immunitrack ITF05 or ACRO FCM-C82W5); also called cFcRn; cFcRn/cb2M
Description: (§1) All kinetic measurements have been performed on ProteOn XPR36 (BioRad Laboratories, Inc.), MASS-2 (Sierra sensors, Gmbh) or SPR-32 (Bruker Corporation). […] The phytip purified periplasmic extracts were diluted 1:10 in running buffer (CPA+150 mM NaCl+0.005% Tw20 at pH 5.5, pH 6.0 or pH 7.4) and injected over the ligand surfaces (association: 120 s at 45 μL/min; dissociation: 600s-3600 s at 45 μL/min). Experiments were carried out at 25° C.

human FcRn/b2M [2] = target: T2, human FcRn/b2M (human, UniProt P61769 21-119, biotinylated); experiment: SPR off-rate; pH 7.4 vs pH 6.0;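 note: surface plasmon resonance with diluted periplasmic extracts flowed over ligand surfaces, 120 s association and 600–3600 s dissociation at 25 °C, running buffer containing 150 mM NaCl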
T2 construct: bought recombinant biotinylated protein (ACRO FCM-H82W4 or Immunitrack ITF01); also called hFcRn; hFcRn/hb2M
Description: as §1

cyno FcRn/b2M [3] = target: T1, cyno FcRn/b2M; experiment: SPR pH 7.4;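 note: surface plasmon resonance kinetics, periplasmic extracts diluted 1:10 flowed over immobilized target at 25 °C, 120 s association then 600–3600 s dissociation, buffer with 150 mM NaCl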
Description: as §1

human FcRn/b2M [4] = target: T2, human FcRn/b2M; experiment: SPR pH 7.4;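 note: surface plasmon resonance kinetics, periplasmic extracts diluted 1:10 flowed over immobilized target at 25 °C, 120 s association then 600–3600 s dissociation, buffer with 150 mM NaCl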
Description: as §1

cyno FcRn/b2M [5] = target: T1, cyno FcRn/b2M; experiment: SPR pH 6.0;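 note: surface plasmon resonance kinetics at 25 °C, diluted periplasmic extracts injected over immobilized ligand surfaces, 120 s association then 600–3600 s dissociation, running buffer containing 150 mM NaCl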
Description: as §1

human FcRn/b2M [6] = target: T2, human FcRn/b2M; experiment: SPR pH 6.0;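 note: surface plasmon resonance kinetics at 25 °C, diluted periplasmic extracts injected over immobilized ligand surfaces, 120 s association then 600–3600 s dissociation, running buffer containing 150 mM NaCl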
Description: as §1

T1 sequence (Q8SPV9 24-297 limits assumed, chain 1 of 2): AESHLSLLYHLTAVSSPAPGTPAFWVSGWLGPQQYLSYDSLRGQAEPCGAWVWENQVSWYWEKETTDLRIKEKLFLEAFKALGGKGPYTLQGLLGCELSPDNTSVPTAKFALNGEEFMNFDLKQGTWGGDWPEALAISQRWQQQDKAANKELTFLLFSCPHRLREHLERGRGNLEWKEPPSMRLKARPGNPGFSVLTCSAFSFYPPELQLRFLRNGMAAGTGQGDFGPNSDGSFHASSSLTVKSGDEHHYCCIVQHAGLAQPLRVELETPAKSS
T1 sequence (Q8SPW0 21-119 limits assumed, chain 2 of 2): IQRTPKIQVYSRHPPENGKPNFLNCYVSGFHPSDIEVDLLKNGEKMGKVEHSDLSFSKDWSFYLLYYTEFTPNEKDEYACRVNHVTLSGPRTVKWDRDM

kd ratio pH 7.4/6.0 (cyno FcRn/b2M [1])	kd ratio pH 7.4/6.0 (human FcRn/b2M [2])	koff (cyno FcRn/b2M [3]) [s⁻¹]	koff (human FcRn/b2M [4]) [s⁻¹]	koff (cyno FcRn/b2M [5]) [s⁻¹]	koff (human FcRn/b2M [6]) [s⁻¹]	Binder
24	21	0.041	0.033	0.0017	0.0016	T0263018B11 G54P (VHH, name in Kabat numbering, FLAG3-His6 tagged) VHH: EVQLVESGGGVVQPGGSLRLSCAASGFTFSSYAMYWVRQAPGKGLEWVSAISSGPGSTDYADSVKGRFTISRDNSKNTLYLQMNSLRPEDTALYYCAADTLYTSLTWYSYWGQGTLVTVSS
48	46	0.11	0.15	0.0022	0.0032	T0263018B11 S52H (VHH, name in Kabat numbering, FLAG3-His6 tagged) VHH: EVQLVESGGGVVQPGGSLRLSCAASGFTFSSYAMYWVRQAPGKGLEWVSAIHSGGGSTDYADSVKGRFTISRDNSKNTLYLQMNSLRPEDTALYYCAADTLYTSLTWYSYWGQGTLVTVSS
60	46	0.018	0.024	0.0003	0.00052	T0263018B11 S31T (VHH, name in Kabat numbering, FLAG3-His6 tagged) VHH: EVQLVESGGGVVQPGGSLRLSCAASGFTFSTYAMYWVRQAPGKGLEWVSAISSGGGSTDYADSVKGRFTISRDNSKNTLYLQMNSLRPEDTALYYCAADTLYTSLTWYSYWGQGTLVTVSS
46	37	0.073	0.071	0.0016	0.0019	T0263018B11 S30E (VHH, name in Kabat numbering, FLAG3-His6 tagged) VHH: EVQLVESGGGVVQPGGSLRLSCAASGFTFESYAMYWVRQAPGKGLEWVSAISSGGGSTDYADSVKGRFTISRDNSKNTLYLQMNSLRPEDTALYYCAADTLYTSLTWYSYWGQGTLVTVSS
26	22	0.14	0.15	0.0055	0.0067	T0263018B11 S52Q (VHH, name in Kabat numbering, FLAG3-His6 tagged) VHH: EVQLVESGGGVVQPGGSLRLSCAASGFTFSSYAMYWVRQAPGKGLEWVSAIQSGGGSTDYADSVKGRFTISRDNSKNTLYLQMNSLRPEDTALYYCAADTLYTSLTWYSYWGQGTLVTVSS
44	37	0.062	0.059	0.0014	0.0016	T0263018B11 S30T (VHH, name in Kabat numbering, FLAG3-His6 tagged) VHH: EVQLVESGGGVVQPGGSLRLSCAASGFTFTSYAMYWVRQAPGKGLEWVSAISSGGGSTDYADSVKGRFTISRDNSKNTLYLQMNSLRPEDTALYYCAADTLYTSLTWYSYWGQGTLVTVSS
61	32	0.19	0.14	0.0031	0.0044	T0263018B11 S52D (VHH, name in Kabat numbering, FLAG3-His6 tagged) VHH: EVQLVESGGGVVQPGGSLRLSCAASGFTFSSYAMYWVRQAPGKGLEWVSAIDSGGGSTDYADSVKGRFTISRDNSKNTLYLQMNSLRPEDTALYYCAADTLYTSLTWYSYWGQGTLVTVSS
69	50	0.12	0.17	0.0018	0.0034	T0263018B11 S31N (VHH, name in Kabat numbering, FLAG3-His6 tagged) VHH: EVQLVESGGGVVQPGGSLRLSCAASGFTFSNYAMYWVRQAPGKGLEWVSAISSGGGSTDYADSVKGRFTISRDNSKNTLYLQMNSLRPEDTALYYCAADTLYTSLTWYSYWGQGTLVTVSS
37	27	0.048	0.03	0.0013	0.0011	T0263018B11 S52P (VHH, name in Kabat numbering, FLAG3-His6 tagged) VHH: EVQLVESGGGVVQPGGSLRLSCAASGFTFSSYAMYWVRQAPGKGLEWVSAIPSGGGSTDYADSVKGRFTISRDNSKNTLYLQMNSLRPEDTALYYCAADTLYTSLTWYSYWGQGTLVTVSS
35	38	0.019	0.025	0.00054	0.00066	T0263018B11 S30G (VHH, name in Kabat numbering, FLAG3-His6 tagged) VHH: EVQLVESGGGVVQPGGSLRLSCAASGFTFGSYAMYWVRQAPGKGLEWVSAISSGGGSTDYADSVKGRFTISRDNSKNTLYLQMNSLRPEDTALYYCAADTLYTSLTWYSYWGQGTLVTVSS

— patent US20240132624A1 (Ablynx, published 2024)
